Laboratory results from article PMC10264073, “Biological condensates form percolated networks with molecular motion properties distinctly different from dilute solutions” (eLife, 2023).

Tests used:
MBP-His6-GCN4-Dimer = assay: SEC-MALS; FPLC coupled with static light scattering; Superose 12 10/300 GL; 50 mM Tris pH 8.2, 100 mM NaCl, 1 mM EDTA, 2 mM DTT; loading concentration not shown
[1] = molecular target: the molecule itself; assay: SEC-MALS; FPLC coupled with static light scattering; Superose 12 10/300 GL; 50 mM Tris pH 8.2, 100 mM NaCl, 1 mM EDTA, 2 mM DTT; loading concentrations 30 μM and 150 μM

| Molecule | stoichiometry N (MBP-His6-GCN4-Dimer) | binding result [1] |
| --- | --- | --- |
| MBP-His6-GCN4-Dimer | 2 | – |
| PrLD-SAMWT fusion protein (FUS PrLD fused to the Shank3 SAM domain; MBP-PrLD-SAMWT-GB1) (other, UniProt P56959 1-212, looked up, FUS prion-like domain (PrLD), UniProt P56959, segment 1-212; SAM domain of Shank3 (aa 1654-1730), UniProt Q4ACU6, fused to the C-terminal end of PrLD; The light-scattering legend calls it only 'PrLD-SAMWT fusion protein (theoretical MW 80.7 kDa)'; also called PrLD-SAM chimera; source: E. coli BL21 (DE3), purified (Ni2+-NTA, size-exclusion chromatography); not shown: MBP, N-terminal, kept; GB1, …) CMASNDYTQQATQSYGAYPTQPGQGYSQQSSQPYGQQSYSGYGQSADTSGYGQSSYGSSYGQTQNTGYGTQSAPQGYGSTGGYGSSQSSQSSYGQQSSYPGYGQQPAPSSTSGSYGGSSQSSSYGQPQSGGYGQQSGYGGQQQSYGQQQSSYNPPQGYGQQNQYNSSSGGGGGGGGGNYGQDQSSMSGGGGGGGYGNQDQSGGGGGGYGGGQQGPRRPFQQKPLQLWSKFDVGDWLESIHLGEHRDRFEDHEIEGAHLPALTKEDFVELGVTRVGHRMNIERALRQLDGS | – | binds |
